The values that follow come from EP3250590B1 (Academia Sinica, dated 2021).

Numbering of substitutions follows the chain as printed.

B1: 3rd humanized MC41 IgG (antibody, V domains shown)
VH: QVQLKESGPGLVAPSKTLSLTCTVSGFSLSSQGVYWIRQPPGKGLEWIGAIWAGGSTNYNSALMSRLSISKDNSKSQVFLKMNSLQTDDTAMYYCARVDGYRGYNMDYWGQGTSVTVSS
VL: ENVLTQSPAIMSATPGEKVTMTCSASSSVSYMHWYQQKSSTSPKLWIYDTSKLASGVPGRFSGSGSGNSYTLTISSMEAEDVATYYCFQGSGYPLTFGAGTKLEIKR
notes: also called 3rd-hMC41
B2: chimeric MC41 (antibody, V domains shown)
VH: B1 VH with T17S, L20I, I37V, I48L
VL: B1 VL with T14S, T71S, I105L
notes: Chimeric intact IgG of murine MC41; also called chMC41
B3: 2nd humanized MC41 IgG (antibody, V domains shown)
VH: B1 VH with S114L
VL: B1 VL with M32L
notes: also called hMC41; humanized 2nd IgG

In the assay the target is T1, BSA (bovine, UniProt P02769 25-607).
T1 construct: also called BSA control protein; bovine serum albumin
T1 sequence (P02769 25-607 limits assumed): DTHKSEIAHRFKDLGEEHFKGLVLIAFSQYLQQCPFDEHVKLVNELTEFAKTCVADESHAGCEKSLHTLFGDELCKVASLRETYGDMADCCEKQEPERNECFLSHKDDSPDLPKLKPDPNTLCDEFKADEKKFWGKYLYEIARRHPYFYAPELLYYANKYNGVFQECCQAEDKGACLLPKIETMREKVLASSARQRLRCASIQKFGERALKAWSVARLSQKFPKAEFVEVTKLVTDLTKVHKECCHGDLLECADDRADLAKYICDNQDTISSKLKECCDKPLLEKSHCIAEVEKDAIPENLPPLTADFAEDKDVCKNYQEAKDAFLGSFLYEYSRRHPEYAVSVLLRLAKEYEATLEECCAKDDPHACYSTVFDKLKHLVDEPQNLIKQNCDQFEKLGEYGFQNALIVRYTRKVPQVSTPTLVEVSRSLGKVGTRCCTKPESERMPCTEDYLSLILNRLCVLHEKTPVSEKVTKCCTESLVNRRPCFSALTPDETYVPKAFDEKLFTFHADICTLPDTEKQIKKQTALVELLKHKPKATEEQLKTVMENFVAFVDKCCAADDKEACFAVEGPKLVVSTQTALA
The experiment in a line: ELISA, intact IgG on coated BSA.
On to B1, for which the binding result is recorded as “no binding”.
As to B2, the binding result is “no binding”.
Turning to B3, the binding result is “no binding”.
